In patent publication US20110110981A1:

Molecular target: purified IgG1
Assay: ELISA on dilutions of purified isotype standards

## anti-mouse IgG1 secondary antibody (tool reagent)
  greater affinity than the IgG2a antibody pair: 40%
